The values below come from PMC10917881, “Biochemical characterization of L-asparaginase isoforms from Rhizobium etli—the boosting effect of zinc” (Frontiers in Chemistry, 2024).

The target in test [1] is Rhizobium etli L-asparaginase ReAIV (constitutive, thermostable), wild type (Rhizobium etli). Put plainly: mass photometry; Refeyn One mass photometer; protein diluted to 20-50 nM; buffers 50 mM Tris-HCl pH 8.0 or 30 mM carbonate pH 9.0; absence or presence of Zn2+ and/or Mg2+; dimer to monomers.
Test [2] deals with Rhizobium etli L-asparaginase ReAV (inducible, thermolabile), wild type (Rhizobium etli). The test is described as above.

Usually stoichiometry N stands for a count of units in the complex or per binding partner. Consider “Rhizobium etli L-asparaginase ReAIV (constitutive, thermostable), wild type (enzyme)”, for which, in test [1], the stoichiometry N is 2. Consider “Rhizobium etli L-asparaginase ReAV (inducible, thermolabile), wild type (enzyme)”, for which, in test [2], the stoichiometry N was 2.
